Laboratory results reported in US20160319321.
Numbering of substitutions follows the chain as printed. Names may count otherwise. “And” between values parts separate entries of the source, which are not always exact repeats. Equal entries are not always repeated.

What was measured:
[1] = molecular target: T1, DVKEGQPLYDEGDR-[Arg34]GLP-1(9-37)
T1 chain: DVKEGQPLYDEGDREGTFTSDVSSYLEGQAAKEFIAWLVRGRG

[2] = molecular target: T2, Lys(Dnp)-EHGDR-EGTFT-Lys(Abz)amide
T2 chain: KEHGDREGTFTK

[3] = molecular target: T3, Lys(Dnp)-ETGDR-HAEGT-Lys(Abz)amide
T3 chain: KETGDRHAEGTK

[4] = molecular target: T4, DVEPGQPLYDEGDR-[Arg34]GLP-1(9-37)
T4 chain: T1 chain with K3E, E4P

[5] = molecular target: T5, Lys(Dnp)-TDEGDR-HAEGT-Lys(Abz)amide
T5 chain: KTDEGDRHAEGTK

[6] = molecular target: T6, Lys(Dnp)-IDEGDR-HAEGT-Lys(Abz)amide
T6 chain: KIDEGDRHAEGTK

[7] = molecular target: T7, Lys(Dnp)-SDEGDR-HAEGT-Lys(Abz)amide
T7 chain: KSDEGDRHAEGTK

[8] = molecular target: T8, Lys(Dnp)-DHGDR-HAEGT-Lys(Abz)amide
T8 chain: KDHGDRHAEGTK

[9] = molecular target: T9, Lys(Dnp)-EEGDR-HAEGT-Lys(Abz)amide
T9 chain: KEEGDRHAEGTK

[10] = molecular target: T10, Lys(Dnp)-DLGDR-HSQGT-Lys(Abz)amide
T10 chain: KDLGDRHSQGTK

[11] = molecular target: T11, Lys(Dnp)-DDGDR-HGTFT-Lys(Abz)amide
T11 chain: KDDGDRHGTFTK

[12] = molecular target: T12, Lys(Dnp)-EDGDR-HGEGT-Lys(Abz)amide
T12 chain: KEDGDRHGEGTK

[13] = molecular target: T13, Lys(Dnp)-DSGDR-EGTFT-Lys(Abz)amide
T13 chain: KDSGDREGTFTK

[14] = molecular target: T14, Lys(Dnp)-DYGDR-EGTFT-Lys(Abz)amide
T14 chain: KDYGDREGTFTK

[15] = molecular target: T15, Lys(Dnp)-HEGDR-HAEGT-Lys(Abz)amide
T15 chain: KHEGDRHAEGTK

[16] = molecular target: T16, Lys(Dnp)-DDGDR-HAEGT-Lys(Abz)amide
T16 chain: KDDGDRHAEGTK

[17] = molecular target: T17, Lys(Dnp)-DEGDR-HGEGT-Lys(Abz)amide
T17 chain: KDEGDRHGEGTK

[18] = molecular target: T18, Lys(Dnp)-DWGDR-HAEGT-Lys(Abz)amide
T18 chain: KDWGDRHAEGTK

[19] = molecular target: T19, Lys(Dnp)-DHGDR-EGTFT-Lys(Abz)amide
T19 chain: KDHGDREGTFTK

[20] = molecular target: T20, Lys(Dnp)-ADEGDR-HAEGT-Lys(Abz)amide
T20 chain: KADEGDRHAEGTK

[21] = molecular target: T21, Lys(Dnp)-FEGDR-HAEGT-Lys(Abz)amide
T21 chain: KFEGDRHAEGTK

[22] = molecular target: T22, Lys(Dnp)-DLGDR-HGEGT-Lys(Abz)amide
T22 chain: KDLGDRHGEGTK

[23] = molecular target: T23, Lys(Dnp)-QDEGDR-HAEGT-Lys(Abz)amide
T23 chain: KQDEGDRHAEGTK

[24] = molecular target: T24, Lys(Dnp)-DEGDR-HSQGT-Lys(Abz)amide
T24 chain: KDEGDRHSQGTK

[25] = molecular target: T25, Lys(Dnp)-QEGDR-EGTFT-Lys(Abz)amide
T25 chain: KQEGDREGTFTK

[26] = molecular target: T26, Lys(Dnp)-AEGDR-HAEGT-Lys(Abz)amide
T26 chain: XAEGDRHAEGTX

[27] = molecular target: T27, DVEPGQPLYDDDDK-[Arg34]GLP-1(9-37)
T27 chain: T1 chain with K3E, E4P, E11D, G12D, R14K

[28] = molecular target: T28, DVKPGQPEYDEGDR-[Arg34]GLP-1(9-37)
T28 chain: T1 chain with E4P, L8E

[29] = molecular target: T29, DVKPGQPLADDDDK-[Arg34]GLP-1(9-37)
T29 chain: T1 chain with E4P, Y9A, E11D, G12D, R14K

[30] = molecular target: T30, Lys(Dnp)-MEGDR-HAEGT-Lys(Abz)amide
T30 chain: KMEGDRHAEGTK

[31] = molecular target: T31, DVKPGQPLYDDDDK-[Arg34]GLP-1(9-37)
T31 chain: T1 chain with E4P, E11D, G12D, R14K

[32] = molecular target: T32, Lys(Dnp)-HDEGDR-HAEGT-Lys(Abz)amide
T32 chain: KHDEGDRHAEGTK

[33] = molecular target: T33, Lys(Dnp)-DYGDR-HAEGT-Lys(Abz)amide
T33 chain: KDYGDRHAEGTK

[34] = molecular target: T34, Lys(Dnp)-EGGDR-EGTFT-Lys(Abz)amide
T34 chain: KEGGDREGTFTK

[35] = molecular target: T35, Lys(Dnp)-WDEGDR-HAEGT-Lys(Abz)amide
T35 chain: KWDEGDRHAEGTK

[36] = molecular target: T36, DVKPGQPLYDEGDR-[Arg34]GLP-1(9-37)
T36 chain: T1 chain with E4P

[37] = molecular target: T37, Lys(Dnp)-NYTDRHAEGT-Lys(Abz)amide
T37 chain: KNYTDRHAEGTK

[38] = molecular target: T38, Lys(Dnp)-VIGDRHAEGT-Lys(Abz)amide
T38 chain: KVIGDRHAEGTK

[39] = molecular target: T39, Lys(Dnp)-ESGDR-EGTFT-Lys(Abz)amide
T39 chain: KESGDREGTFTK

[40] = molecular target: T40, DVKPGQELYDDDDK-[Arg34]GLP-1(9-37)
T40 chain: T1 chain with E4P, P7E, E11D, G12D, R14K

B1: bovine Enterokinase light chain variant (C112A, L134K, I135K) (protein)
chain: IVGGSDSREGAWPWVVALYFDDQQVCGASLVSRDWLVSAAHCVYGRNMEPSKWKAVLGLHMASNLTSPQIETRLIDQIVINPHYNKRRKNNDIAMMHLEMKVNYTDYIQPIALPEENQVFPPGRICSIAGWGAKKYQGSTADVLQEADVPLLSNEKCQQQMPEYNITENMVCAGYEAGGVDSCQGDSGGPLMCQENNRWLLAGVTSFGYQCALPNRPGVYARVPRFTEWIQSFLH
**Q.** What does the source list for B1?
**A.** Activity (%) [1]: 913%; Activity (%) [2]: 339%; Activity (%) [3]: 475%; Activity (%) [4]: 951%; Activity (%) [5]: 237%; Activity (%) [6]: 283%; Activity (%) [7]: 222%; Activity (%) [8]: 545%; Activity (%) [9]: 988%; Activity (%) [10]: 268%; Activity (%) [11]: 402%; Activity (%) [12]: 462%; Activity (%) [13]: 342%; Activity (%) [14]: 373%; Activity (%) [15]: 468%; Activity (%) [16]: 604% and 601%; Activity (%) [17]: 736%; Activity (%) [18]: 513%; Activity (%) [19]: 398%; Activity (%) [20]: 100%; Activity (%) [21]: 397%; Activity (%) [22]: 438%; Activity (%) [23]: 141%; Activity (%) [24]: 621%; Activity (%) [25]: 411%; Activity (%) [26]: 382%; Activity (%) [27]: 203%; Activity (%) [28]: 625%; Activity (%) [29]: 134%; Activity (%) [30]: 419%; Activity (%) [31]: 136%; Activity (%) [32]: 204%; Activity (%) [33]: 505%; Activity (%) [34]: 380%; Activity (%) [35]: 181%; Activity (%) [36]: 707%; Activity (%) [37]: 59%; Activity (%) [38]: 68%; Activity (%) [39]: 362%; Activity (%) [40]: 168%
